In patent publication US20180362632A1 (published 2018):

Molecular target: recombinant human GM-CSF protein (human, UniProt P04141 18-144)
Test: ELISA

Chain of recombinant human GM-CSF protein (P04141 18-144): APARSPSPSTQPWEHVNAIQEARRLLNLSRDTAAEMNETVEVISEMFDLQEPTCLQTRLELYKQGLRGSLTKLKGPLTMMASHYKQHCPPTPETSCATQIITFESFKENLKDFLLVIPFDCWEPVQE

Binder | EC50 [pM]
Hu23F4-21 (antibody, V domains shown) VH: EVQLVQSGAEVKKPGASVKVSCKASGYTFTSHYLHWVRQAPGQGLEWMGWIFPGDDKTKYNEKFKGRVTMTRDTSISTAYMELSRLRSDDTAVYYCARGTKYLNWNFDVWGQGTTVTVSS VL: DIQLTQSPSFLSASVGDRVTITCKANQNVGTTLAWYQQKPGKAPKALIYSASYRYSGVPSRFSGSGSGTEFTLTISSLQPEDFATYYCHQYTTYPLTFGGGTKVEIK | 151
Hu23F4-2 (antibody, V domains shown) VH: EVQLVQSGAEVKKPGATVKISCKVSGYTFTSHYLHWVQQAPGKGLEWMGWIFPGDDKTKYNEKFKGRVTITADTSTDTAYMELSSLRSEDTAVYYCARGTKYLNWNFDVWGQGTTVTVSS VL: DIQLTQSPSFLSASVGDRVTITCKANQNVGTTLAWYQQKPGKAPKALIYSASYRYSGVPSRFSGSGSGTEFTLTISSLQPEDFATYYCHQYTTYPLTFGGGTKVEIK | 158
Hu23F4-19 (antibody, V domains shown) VH: EVQLVQSGAEVKKPGATVKISCKVSDYTLTSHYLHWVQQAPGKGLEWIGWIFPGDDKTKYNEKFKGRATLTSDTSTDTAYMELSSLRSEDTAVYYCARGTKYLNWNFDVWGQGTTVTVSS VL: DIQLTQSPSFLSASVGDRVTITCKANQNVGTTLAWYQQKPGKAPKALIYSASYRYSGVPDRFSGSGSGTDFTLTISSLQPEDFATYYCHQYTTYPLTFGGGTKVEIK | 78.7
Hu23F4-12 (antibody, V domains shown) VH: EVQLVQSGAEVKKPGATVKISCKVSGYTFTSHYLHWVQQAPGKGLEWMGWIFPGDDKTKYNEKFKGRATLTSDTSTDTAYMELSSLRSEDTAVYYCARGTKYLNWNFDVWGQGTTVTVSS VL: DIQLTQSPSFLSASVGDRVTITCKANQNVGTTLAWYQQKPGKSPKALIYSASYRYSGVPDRFSGSGSGTDFTLTISSLQPEDFATYFCHQYTTYPLTFGGGTKVEIK | 226
Hu23F4-17 (antibody, V domains shown) VH: EVQLVQSGAEVKKPGATVKISCKVSDYTLTSHYLHWVQQAPGKGLEWIGWIFPGDDKTKYNEKFKGRATLTSDTSTDTAYMELSSLRSEDTAVYYCARGTKYLNWNFDVWGQGTTVTVSS VL: DIQLTQSPSFLSASVGDRVTITCKANQNVGTTLAWYQQKPGKAPKLLIYSASYRYSGVPSRFSGSGSGTEFTLTISSLQPEDFATYYCHQYTTYPLTFGGGTKVEIK | 102
Hu23F4-11 (antibody, V domains shown) VH: EVQLVQSGAEVKKPGATVKISCKVSGYTFTSHYLHWVQQAPGKGLEWMGWIFPGDDKTKYNEKFKGRATLTSDTSTDTAYMELSSLRSEDTAVYYCARGTKYLNWNFDVWGQGTTVTVSS VL: DIQLTQSPSFLSASVGDRVTITCKANQNVGTTLAWYQQKPGKAPKALIYSASYRYSGVPDRFSGSGSGTDFTLTISSLQPEDFATYYCHQYTTYPLTFGGGTKVEIK | 87.1
Hu23F4-4 (antibody, V domains shown) VH: EVQLVQSGAEVKKPGATVKISCKVSGYTFTSHYLHWVQQAPGKGLEWMGWIFPGDDKTKYNEKFKGRVTITADTSTDTAYMELSSLRSEDTAVYYCARGTKYLNWNFDVWGQGTTVTVSS VL: DIQLTQSPSFLSASVGDRVTITCKANQNVGTTLAWYQQKPGKSPKALIYSASYRYSGVPDRFSGSGSGTDFTLTISSLQPEDFATYFCHQYTTYPLTFGGGTKVEIK | 62.3
Hu23F4-13 (antibody, V domains shown) VH: EVQLVQSGAEVKKPGATVKISCKVSGYTFTSHYLHWVQQAPGKGLEWIGWIFPGDDKTKYNEKFKGRATLTSDTSTDTAYMELSSLRSEDTAVYYCARGTKYLNWNFDVWGQGTTVTVSS VL: DIQLTQSPSFLSASVGDRVTITCKANQNVGTTLAWYQQKPGKAPKLLIYSASYRYSGVPSRFSGSGSGTEFTLTISSLQPEDFATYYCHQYTTYPLTFGGGTKVEIK | 85.2
Hu23F4-10 (antibody, V domains shown) VH: EVQLVQSGAEVKKPGATVKISCKVSGYTFTSHYLHWVQQAPGKGLEWMGWIFPGDDKTKYNEKFKGRATLTSDTSTDTAYMELSSLRSEDTAVYYCARGTKYLNWNFDVWGQGTTVTVSS VL: DIQLTQSPSFLSASVGDRVTITCKANQNVGTTLAWYQQKPGKAPKALIYSASYRYSGVPSRFSGSGSGTEFTLTISSLQPEDFATYYCHQYTTYPLTFGGGTKVEIK | 116
Hu23F4-7 (antibody, V domains shown) VH: EVQLVQSGAEVKKPGATVKISCKVSGYTFTSHYLHWVQQAPGKGLEWMGWIFPGDDKTKYNEKFKGRVTITSDTSTDTAYMELSSLRSEDTAVYYCARGTKYLNWNFDVWGQGTTVTVSS VL: DIQLTQSPSFLSASVGDRVTITCKANQNVGTTLAWYQQKPGKAPKALIYSASYRYSGVPDRFSGSGSGTDFTLTISSLQPEDFATYYCHQYTTYPLTFGGGTKVEIK | 164
Hu23F4-16 (antibody, V domains shown) VH: EVQLVQSGAEVKKPGATVKISCKVSGYTFTSHYLHWVQQAPGKGLEWIGWIFPGDDKTKYNEKFKGRATLTSDTSTDTAYMELSSLRSEDTAVYYCARGTKYLNWNFDVWGQGTTVTVSS VL: DIQLTQSPSFLSASVGDRVTITCKANQNVGTTLAWYQQKPGKSPKALIYSASYRYSGVPDRFSGSGSGTDFTLTISSLQPEDFATYFCHQYTTYPLTFGGGTKVEIK | 85.8
Hu23F4-15 (antibody, V domains shown) VH: EVQLVQSGAEVKKPGATVKISCKVSGYTFTSHYLHWVQQAPGKGLEWIGWIFPGDDKTKYNEKFKGRATLTSDTSTDTAYMELSSLRSEDTAVYYCARGTKYLNWNFDVWGQGTTVTVSS VL: DIQLTQSPSFLSASVGDRVTITCKANQNVGTTLAWYQQKPGKAPKALIYSASYRYSGVPDRFSGSGSGTDFTLTISSLQPEDFATYYCHQYTTYPLTFGGGTKVEIK | 170
Hu23F4-20 (antibody, V domains shown) VH: EVQLVQSGAEVKKPGASVKVSCKASGYTFTSHYLHWVRQAPGQGLEWMGWIFPGDDKTKYNEKFKGRVTMTRDTSISTAYMELSRLRSDDTAVYYCARGTKYLNWNFDVWGQGTTVTVSS VL: DIQLTQSPSFLSASVGDRVTITCKANQNVGTTLAWYQQKPGKAPKLLIYSASYRYSGVPSRFSGSGSGTEFTLTISSLQPEDFATYYCHQYTTYPLTFGGGTKVEIK | 99.3
Hu23F4-1 (antibody, V domains shown) VH: EVQLVQSGAEVKKPGATVKISCKVSGYTFTSHYLHWVQQAPGKGLEWMGWIFPGDDKTKYNEKFKGRVTITADTSTDTAYMELSSLRSEDTAVYYCARGTKYLNWNFDVWGQGTTVTVSS VL: DIQLTQSPSFLSASVGDRVTITCKANQNVGTTLAWYQQKPGKAPKLLIYSASYRYSGVPSRFSGSGSGTEFTLTISSLQPEDFATYYCHQYTTYPLTFGGGTKVEIK | 110
Hu23F4-3 (antibody, V domains shown) VH: EVQLVQSGAEVKKPGATVKISCKVSGYTFTSHYLHWVQQAPGKGLEWMGWIFPGDDKTKYNEKFKGRVTITADTSTDTAYMELSSLRSEDTAVYYCARGTKYLNWNFDVWGQGTTVTVSS VL: DIQLTQSPSFLSASVGDRVTITCKANQNVGTTLAWYQQKPGKAPKALIYSASYRYSGVPDRFSGSGSGTDFTLTISSLQPEDFATYYCHQYTTYPLTFGGGTKVEIK | 88.7

Stronger by EC50, values ahead:

EC50 [pM] | Binder
59 | Hu23F4-22 (antibody, V domains shown) VH: EVQLVQSGAEVKKPGASVKVSCKASGYTFTSHYLHWVRQAPGQGLEWMGWIFPGDDKTKYNEKFKGRVTMTRDTSISTAYMELSRLRSDDTAVYYCARGTKYLNWNFDVWGQGTTVTVSS VL: DIQLTQSPSFLSASVGDRVTITCKANQNVGTTLAWYQQKPGKAPKALIYSASYRYSGVPDRFSGSGSGTDFTLTISSLQPEDFATYYCHQYTTYPLTFGGGTKVEIK
58.5 | Hu23F4-18 (antibody, V domains shown) VH: EVQLVQSGAEVKKPGATVKISCKVSDYTLTSHYLHWVQQAPGKGLEWIGWIFPGDDKTKYNEKFKGRATLTSDTSTDTAYMELSSLRSEDTAVYYCARGTKYLNWNFDVWGQGTTVTVSS VL: DIQLTQSPSFLSASVGDRVTITCKANQNVGTTLAWYQQKPGKAPKALIYSASYRYSGVPSRFSGSGSGTEFTLTISSLQPEDFATYYCHQYTTYPLTFGGGTKVEIK
58.5 | Hu23F4-5 (antibody, V domains shown) VH: EVQLVQSGAEVKKPGATVKISCKVSGYTFTSHYLHWVQQAPGKGLEWMGWIFPGDDKTKYNEKFKGRVTITSDTSTDTAYMELSSLRSEDTAVYYCARGTKYLNWNFDVWGQGTTVTVSS VL: DIQLTQSPSFLSASVGDRVTITCKANQNVGTTLAWYQQKPGKAPKLLIYSASYRYSGVPSRFSGSGSGTEFTLTISSLQPEDFATYYCHQYTTYPLTFGGGTKVEIK
51.6 | Hu23F4-9 (antibody, V domains shown) VH: EVQLVQSGAEVKKPGATVKISCKVSGYTFTSHYLHWVQQAPGKGLEWMGWIFPGDDKTKYNEKFKGRATLTSDTSTDTAYMELSSLRSEDTAVYYCARGTKYLNWNFDVWGQGTTVTVSS VL: DIQLTQSPSFLSASVGDRVTITCKANQNVGTTLAWYQQKPGKAPKLLIYSASYRYSGVPSRFSGSGSGTEFTLTISSLQPEDFATYYCHQYTTYPLTFGGGTKVEIK
50.9 | Hu23F4-14 (antibody, V domains shown) VH: EVQLVQSGAEVKKPGATVKISCKVSGYTFTSHYLHWVQQAPGKGLEWIGWIFPGDDKTKYNEKFKGRATLTSDTSTDTAYMELSSLRSEDTAVYYCARGTKYLNWNFDVWGQGTTVTVSS VL: DIQLTQSPSFLSASVGDRVTITCKANQNVGTTLAWYQQKPGKAPKALIYSASYRYSGVPSRFSGSGSGTEFTLTISSLQPEDFATYYCHQYTTYPLTFGGGTKVEIK
48.4 | Hu23F4-8 (antibody, V domains shown) VH: EVQLVQSGAEVKKPGATVKISCKVSGYTFTSHYLHWVQQAPGKGLEWMGWIFPGDDKTKYNEKFKGRVTITSDTSTDTAYMELSSLRSEDTAVYYCARGTKYLNWNFDVWGQGTTVTVSS VL: DIQLTQSPSFLSASVGDRVTITCKANQNVGTTLAWYQQKPGKSPKALIYSASYRYSGVPDRFSGSGSGTDFTLTISSLQPEDFATYFCHQYTTYPLTFGGGTKVEIK
19.6 | Hu23F4-6 (antibody, V domains shown) VH: EVQLVQSGAEVKKPGATVKISCKVSGYTFTSHYLHWVQQAPGKGLEWMGWIFPGDDKTKYNEKFKGRVTITSDTSTDTAYMELSSLRSEDTAVYYCARGTKYLNWNFDVWGQGTTVTVSS VL: DIQLTQSPSFLSASVGDRVTITCKANQNVGTTLAWYQQKPGKAPKALIYSASYRYSGVPSRFSGSGSGTEFTLTISSLQPEDFATYYCHQYTTYPLTFGGGTKVEIK
